Measured values taken from PMC4278885.

Assays:
[1] = target: GFP-binding nanobody Enhancer (camelid); test: Molecular Force Assay (Protein-MFA); multiplexed measurement of Fig. 2B: nanobody on the glass slide, sfGFP on the DNA reference; references compared: unmodified 40 bp DNA, 40 bp DNA with propynyl bases, 20 bp DNA with polyamide P1, P2 or P3 (1 uM); pH 7.4; read-out NF
[2] = target: GFP-binding nanobody Enhancer (camelid); test: Molecular Force Assay (Protein-MFA); Enhancer covalently on the glass slide via its C-terminus (PEG linker); GFP attached at its N-terminus to the DNA reference; reference 20 bp DNA stabilized with polyamide P1; one contact process with a single stamp; retraction 1 um/s; read-out Normalized Fluorescence (NF), 0.5 = protein bond as strong as the reference

GFP-binding nanobody Enhancer (camelid), sequence (heavy, as listed by the source): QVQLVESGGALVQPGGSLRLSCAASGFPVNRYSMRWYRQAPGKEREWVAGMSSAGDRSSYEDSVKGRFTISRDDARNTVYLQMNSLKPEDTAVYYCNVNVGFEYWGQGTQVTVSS

Question: For “superfolder GFP (from UniProt P42212 1-238) (natural protein)”, which Normalized Fluorescence (NF), 40 bp DNA reference with propynyl bases [1] is on record?
Answer: 0.8

Question: And the Normalized Fluorescence (NF), 20 bp DNA reference with polyamide P1 [2]?
Answer: 0.353
